The data set concerns MS2 coat protein. The data set can be described thus: apparent KD of MS2 coat protein; designed switch direction (-1 OFF switch, 1 ON switch): -1; higher = weaker reporter binding. Summed up:
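Designed RNA switches sharing common flanks were transcribed on Illumina chips by stalled E. coli RNA polymerase. They were titrated with SNAP-549-labelled MS2 coat protein, from 0.7 or 1.5 nM doubling to 3 µM, in Tris-HCl pH 7.5 buffer with KCl, MgCl2, BSA, DTT, tRNA and Tween-20. Titrations ran without input, with 200 uM small-molecule ligand, or with an oligonucleotide input. The apparent KD of each design is the median over its clusters, after curve-fitting of normalised cluster fluorescence.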

Where [1] appears, read: input ligand: microRNA oligo, concentration not stated.
[2] abbreviates: Eterna round: R95, input ligand: FMN 200 uM.
[3] abbreviates: Eterna round: R95, input ligand: microRNA oligo, concentration not stated.
The mark [4] stands for this setting: Eterna round: R95, input ligand: none.

“CAAACAAGCGAAAGAUCCCACAUGAGGAUCACCCAUGUGCUCGUCUUAUAAGGUACUGUGACGAUAGUCACGGUACC [Mat - Sensor, turn-off var - Eli Mod - D79] (Eterna round: R97, puzzle: Sensor, turn-off variant 1)”: the “apparent KD of MS2 coat protein” value (input ligand: FMN 200 uM) was found to be 36.8 nM and the “apparent KD of MS2 coat protein” value (input ligand: none) was found to be 45.2 nM.
For “GCUGGUCGAGGAUAUGCAUACACUGGAUACAGUGGAAGGUCACAUGAGGAUCACCCAUGUAGAAGGCGACCAGC [EX2 #35] (Eterna round: R97, puzzle: Exclusion 2)”, in that order: 122 nM and 35.1 nM.
As for “CUCUUGUGAGGAUAUCUCCCAGCGAUUAAUUGGGCAGUCUGAGAGAAGGUACAUGAGGAUCACCCAUGUGAUAG [Eternabot (L1) Solution 73] (Eterna round: R97, puzzle: Exclusion 4)”, the “apparent KD of MS2 coat protein” value amounted to 69.3 nM (input ligand: FMN 200 uM) and 61.7 nM (input ligand: none).
As to “GUCCCGGAAGGAUAUGCAGAGCACGAUCCCGUUAAAGGGCCACAUGAGGAUCACCCAUGUAGAAGGUCCAGGGC [EX2 B.21] (Eterna round: R97, puzzle: Exclusion 2)”, the “apparent KD of MS2 coat protein” value (input ligand: FMN 200 uM) turned out to be 32.8 nM and the “apparent KD of MS2 coat protein” value (input ligand: none) was 13.1 nM.
Turning to “UUAUAGUUAGAGGAUAUAUUAAGGUAUGCUUUGAUAGAAGGCUAGACAUGAGGAUCACCCAUGUAUAUUGGGAU [JR_Ex6_Sub075] (Eterna round: R97, puzzle: Exclusion 6)”, the “apparent KD of MS2 coat protein” value reads like this: (input ligand: FMN 200 uM) 425 nM; (input ligand: none) 220 nM.
Consider “CACUUACAUGAGGAUCACCCAUGUGAGGAUAUCGUGACCAGACGAGAAGUCUAUGUCACGAGAAGGUACAUGGG [Exclusion 1 (Mod 1.1 solution 97 by Eternabot)] (Eterna round: R97, puzzle: Exclusion 1)”, for which the “apparent KD of MS2 coat protein” value (input ligand: FMN 200 uM) stood at 93.3 nM and the “apparent KD of MS2 coat protein” value (input ligand: none) was 574 nM.
Consider “GGAACUGGAGGAUAUACAUGAGGAUCACCCAUGUAUAGAUAUGGUUAUUAGCCUCAUAGUAGAAGGUUAGUGGC [EX3 C.4] (Eterna round: R97, puzzle: Exclusion 3)”, for which the “apparent KD of MS2 coat protein” value turned out to be 21.6 nM (input ligand: FMN 200 uM) and 20.1 nM (input ligand: none).
For the sequence “GUCAGCUCGUGAGGAUAUACAUGCGUGCUUCGGCACGUAUGAUAGAUCACAUGAGGAUCACCCAUGUAGAAGGCACGAGCUGAU [ENG2/4-A2] (Eterna round: R96, puzzle: Exclusion NG 2)”, the “apparent KD of MS2 coat protein” value reads like this: (input ligand: FMN 200 uM) 21.7 nM; under setting [1], 10.4 nM; (input ligand: none) 11.8 nM.
Consider “UACACCACAUGAGGAUCAAACAUGAGGAUCACCCAUGUAUAGCAAGCUUUUUGCUCGUCUUAUAAAUAUGUGGUGUA [Electric Eye 6 - Jieux - Sensor, turn-off variant 1] (Eterna round: R97, puzzle: Sensor, turn-off variant 1)”, for which the “apparent KD of MS2 coat protein” value runs as follows: (input ligand: FMN 200 uM) 14.9 nM; (input ligand: none) 14.9 nM.
For the sequence “UUACAGCAAGGAUAUACAUGAGGAUCACCCAUGUAUGCAUGUUCGAGAGAGGCCUACGGUAGAAGGUGCAUGUU [EX3 C.11] (Eterna round: R97, puzzle: Exclusion 3)”, the “apparent KD of MS2 coat protein” value by setting is: (input ligand: FMN 200 uM) 25.2 nM; (input ligand: none) 39.8 nM.
“AGAACUCUAGUAGGAUAUGUCGGAUAUGUUGUUGAGGUUCACCCAACGACGUCAAUGACAGAGGGACAGAAGGACUCCUGUUCC [pwkr exNG2 2xFMN 1xF5.9] (Eterna round: R96, puzzle: Exclusion NG 2)”: the “apparent KD of MS2 coat protein” value amounted to 873 nM (input ligand: FMN 200 uM), 506 nM under setting [1] and 1110 nM (input ligand: none).
With “UAUUAAACAAGCAGAUCCCACAUGAGGAUCACCCAUGUGCUCGUCUUAUAAGGUACUGUGACGAAAGUCACGGUACC [Sensor 3, v1 - 91 v11] (Eterna round: R97, puzzle: Sensor, turn-off variant 1)”, the “apparent KD of MS2 coat protein” value (input ligand: FMN 200 uM) is 56.7 nM and the “apparent KD of MS2 coat protein” value (input ligand: none) is 62.1 nM.
With “AUAUUAACAUAGGAUAUCGAAUAAAUUAUUUAACGAGAAGGAUGAACAUGAGGAUCACCCAUGUGGUAUCAUGG [Mat - Exclusion 6 - JL Mod - D29] (puzzle: Exclusion 6)”, the “apparent KD of MS2 coat protein” value under setting [2] came out at 153 nM, the “apparent KD of MS2 coat protein” value under setting [3] came to 236 nM and the “apparent KD of MS2 coat protein” value under setting [4] was 411 nM.
For the sequence “AGCGCCAUCGUGAGAUGGCGUAUUACAUGAGGAUCACCCAUGUAGGAUAUCGAUUGCUUUGCAGUCGAGAAGGACAUGUUCUUG [JL ENG3 3.80 Mod B] (Eterna round: R96, puzzle: Exclusion NG 3)”, the “apparent KD of MS2 coat protein” value under setting [1] worked out at 39.4 nM.
Consider “UGAGUGCUGCGAGGAUAUACAUGAGGAUCACCCAUGUUUUCCUGUGAGGCUUUGCCUCACAGGAUGUAGAAGGCGCAGUACUCU [JL ENG2 1.14] (Eterna round: R96, puzzle: Exclusion NG 2)”, for which the “apparent KD of MS2 coat protein” value (input ligand: FMN 200 uM) amounted to 9.13 nM, the “apparent KD of MS2 coat protein” value under setting [1] was determined as 7.33 nM and the “apparent KD of MS2 coat protein” value (input ligand: none) came to 12.1 nM.
Take “UAAUAAAGUGUGAGGAUAUGCUGGUCGAUAGAUCAGCAGAAGGCACAUGAGGAUCACCCAUGUAAUAUAUAAAU [Mat - Exclusion 4 - JL Mod - D58] (puzzle: Brourd's mod of Exclusion 4)”: the “apparent KD of MS2 coat protein” value turned out to be 258 nM under setting [2], 40.9 nM under setting [3] and 45 nM under setting [4].
As to “GGUCGAAAACAGCUCCGCGCUGCCCUCGACCGCUCAUUUACAUGAGGAUCACCCAUGUUUUUUGCUUGUCUUGUUUC [Esrionus] (puzzle: Sensor v3, turn-off variant 2)”, the “apparent KD of MS2 coat protein” value reads like this: under setting [2], 18.3 nM; under setting [3], 80.1 nM; under setting [4], 22.9 nM.
For the sequence “CGCCCGGGAGGAUAUCCAAUAUAUGACAUGAGGAUCACCCAUGUUUCCACUCGUACCUCCGGAGAAGGCCCGGCGA [Ex5 #28] (Eterna round: R97, puzzle: Exclusion 5)”, the “apparent KD of MS2 coat protein” value is, setting by setting: (input ligand: FMN 200 uM) 20.2 nM; (input ligand: none) 24.9 nM.
With “CCUCUACAUGAGGAUCACCCAUGUGAGGAUAUGCGAGGCGCACUCGAUGAGCGCGCCGGUAGAAGGCAUGUGGU [Raraveries] (Eterna round: R96, puzzle: Exclusion 1)”, the “apparent KD of MS2 coat protein” value (input ligand: FMN 200 uM) came to 67 nM, the “apparent KD of MS2 coat protein” value under setting [1] turned out to be 29.8 nM and the “apparent KD of MS2 coat protein” value (input ligand: none) is 41.9 nM.
With “UAUUAGCAAGCUAGAUCCCACAUGAGGAUCACCCAUGUGCUCGUCUUAUAAGGUACUGUGACGAAAGUCACGGUACC [Sensor 3, v1 - 96] (puzzle: Sensor v3, turn-off variant 1)”, the “apparent KD of MS2 coat protein” value was found to be 56.8 nM under setting [2], 798 nM under setting [3] and 57.5 nM under setting [4].
For “CCUCAACAUGAGGAUCACCCAUGUAAGGAUAUGUUGCAGAGCCUCGAGGUACCCGUCAACAGAAGGUAUAUAGA [Eternabot (L1) Solution 16] (Eterna round: R97, puzzle: Exclusion 1)”, the “apparent KD of MS2 coat protein” value (input ligand: FMN 200 uM) was 45.1 nM and the “apparent KD of MS2 coat protein” value (input ligand: none) amounted to 30.7 nM.
“AGAGUGCUGCGAGGAUAUACAUGAGGAUCACCCAUGUAAAAGUGUGAGGCUUUGCCUCACACGAAGUAGAAGGCGCAGUACUCA [Mat - Exclusion NG 2 - Mod of JL - D33] (Eterna round: R96, puzzle: Exclusion NG 2)”: the “apparent KD of MS2 coat protein” value is, setting by setting: (input ligand: FMN 200 uM) 13 nM; under setting [1], 11.3 nM; (input ligand: none) 24.3 nM.
In the case of “AGCCAAGCAGGAUAUGCACGUAAUAACAUGAGGAUCACCCAUGUGACCGAUUUAUAUUCUGCAGAAGGGCUUGGAA [LRO-Excl5-14-mod of Erxesoan mod by Eli Fisker] (Eterna round: R97, puzzle: Exclusion 5)”, the “apparent KD of MS2 coat protein” value is 143 nM (input ligand: FMN 200 uM) and 29.7 nM (input ligand: none).
In the case of “GUGUAGUGAGGAUAUACAUGAGGAUCACCCAUGUGAAUAAGAUAGAAUAAGAUAAAGUGUAGAAGGUAUAGUGU [Excluse me!!! 17 - Jieux - Exclusion 3] (puzzle: Exclusion 3)”, under setting [3], the “apparent KD of MS2 coat protein” value came to 50 nM.
With “CUUAGACAUGAGGAUCACCCAUGUGAGGAUAUGAAAUUAAUUAAUUAUUAAGUAUGAAUCAGAAGGCACAUAUG [Mat - Mod of Hyphema D36] (puzzle: Exclusion 1)”, the “apparent KD of MS2 coat protein” value under setting [2] came to 79.9 nM, the “apparent KD of MS2 coat protein” value under setting [3] came to 81.6 nM and the “apparent KD of MS2 coat protein” value under setting [4] was 78.9 nM.
For “CAGUACUGAGGAUAUACAUGAGGAUCACCCAUGUGUUCCAGCUGGGAAACUAGCAAAAGUAGAAGGCAGUACUG [salish99_ex3_r3_076] (puzzle: Exclusion 3)”, in that order: 422 nM, 27.3 nM and 20.8 nM.
Consider “CGAUAAAAGACAGGAUAUGAGGAGAGAGAGAGAUCAGAAGGGUCACAUGAGGAUCACCCAUGUGAGUUCUCGAUAAGAAAGAGG [Prohibition 52 - Jieux - Exclusion NG 1] (Eterna round: R96, puzzle: Exclusion NG 1)”, for which the “apparent KD of MS2 coat protein” value is, setting by setting: (input ligand: FMN 200 uM) 19.3 nM; under setting [1], 14.6 nM; (input ligand: none) 21 nM.
Take “CAGUACUGAGGAUAUACAUGAGGAUCACCCAUGUGUCCCUGCUAGGAAACUAGCAAUAGUAGAAGGCAGUACUG [Fiskers Ex 3 828 mod 4] (puzzle: Exclusion 3)”: under setting [3], the “apparent KD of MS2 coat protein” value was determined as 17 nM.
As for “GUGUGCACGCUGCGAUCCUACAUGAGGAUCACCCAUGUGGUCUGGUGGCGUGGGUCACCGGACUUGGCUCGUCUUGG [salish99_S_TOV1_R5_077] (Eterna round: R97, puzzle: Sensor, turn-off variant 1)”, the “apparent KD of MS2 coat protein” value (input ligand: FMN 200 uM) turned out to be 171 nM and the “apparent KD of MS2 coat protein” value (input ligand: none) stood at 169 nM.
Taken in the same sequence, the figures for “CAGCGAUCAGGAUAUACAUGAGGAUCACCCAUGUGUUCCAGCUAGGAAACUAGCAAAUGUAGAAGGGAUCGCUG [jl-ex3-4.00 salish99 mod] (Eterna round: R97, puzzle: Exclusion 3)” were 32.2 nM and 346 nM.

For the origin of these results see the supplement of paper PMC9170038.
